This is an account of results in patent publication US20190300610A1.

Some targets named below: mFcgRIII; mFcgRIV; mFcgRIIb; mFcRn.
What all share (assay): reported; reported KD

What is called Kd is the constant that tells how readily two partners part at equilibrium. A high value points to weaker binding. In the case of hIgG1, the Kd was determined as 9300 nM with mFcgRIII, 280 nM with mFcgRIV, 1100 nM with mFcgRIIb and 72 nM with mFcRn.
The matching figures for mIgG2b: 1560 nM, 59 nM, 448 nM and 545 nM.
The matching figures for hIgG3: 1300 nM, 170 nM, 700 nM and 230 nM.
The corresponding values for mIgG2a are 1460 nM, 34.5 nM, 2390 nM and 490 nM.
Turning to mIgG1, the Kd in the assay with mFcgRIII is 3200 nM; with mFcgRIIb it was 301 nM; with mFcRn, 1160 nM.
Regarding hIgG4, the equilibrium dissociation constant (Kd) with mFcgRIII is 21000 nM; in the assay with mFcgRIV it was 26000 nM; with mFcgRIIb, 11000 nM; with mFcRn, 116 nM.
As to mIgG3, the Kd with mFcRn stood at 140 nM.
Regarding hIgG2, the Kd is 9700 nM with mFcgRIII, 7900 nM with mFcgRIIb and 63 nM in the assay with mFcRn.
